# According to CN117715654A (OXFORD BIOTHERAPEUTICS LTD, dated 2024):
# B1: 16A5(CD205_A1), DM4-conjugated anti-CD205 (anti-LY75) monoclonal antibody (antibody, V domains shown)
# VH: EVQLVESGGGLVKPGGSLRLSCAASGFTYSNAWMSWVRQAPGKGLEWVGRIKSKTDGGTTDYAAPVQGRFTISRDDSKNTLYLQMNSLKTEDTAVYYCTIFGVVSFDYWGQGTLVTVSS
# VL: DVQMTQSPSSLSASVGDRVTITCRASQSISDYLSWYQQRPGKAPNLLIYAASNLKTGVPSRFSGSGSGTDFTLTISTLQPEDFATYYCQQSYRSPWTFGQGTKVEIKR
# modifications: conjugated to maytansinoid DM4; attachment residues not stated
# Target: human CD205 (human)
# Test: cell-based or functional assay
binder,measurement,value
B1,"EC50 of cytotoxicity on Raji cells (Cell-Titer Glo, 96 h)",0.728 nM
same,"EC50 of cytotoxicity on THP1 cells (Cell-Titer Glo, 96 h)",0.0375 nM
